Experiments:
Format in all cases: cell-based, human
[1] = tested on: MM415 tumor cell line (HLA-A*02 positive, NY-ESO-1/LAGE-1 positive); assay: Killing of tumor cells, Annexin V live-cell imaging (IncuCyte ZOOM); settings: TCR-transduced CD8+ T cells, effector-to-target about 4:1
Protocol: (§1) The killing capacity of T11.8-10-17- or benchmark-TCR-transduced CD8^+ T cells (CD8-T11.8-10-17 or CD8 benchmark-TCR) was evaluated by co-culturing with the HLA-A*02 positive NY-ESO-1/LAGE-1 positive tumor cell line Me1624.38 (FIG. 2a). In addition, killing of CD8-T11.8-10-17 was also tested with the HLA-A*02 positive NY-ESO-1/LAGE-1 positive tumor cell line MM415 (FIG. 2b). As a negative control, untransduced CD8^+ enriched PBMC were used as effector cells (CD8 UT) or the HLA-A*02 positive but NY-ESO-1/LAGE-1 negative tumor cell line SK-Me123 was used as target cells. The co-cultures were set-up at an effector-to-target ratio of about 4:1, i.e. 10,000 adherent tumor cells were seeded one day prior to the co-culture and subsequently 40,000 transgenic TCR^+ T cells were added. An increase of red fluorescent target cells (Total Integrated Intensity in GCU×μm^2/Image) that indicates induction of apoptosis of target cells (Annexin V, red), was measured every four hours over a total time period of 67 hours using live-cell monitoring (IncuCyte® ZOOM).

[2] = tested on: Me1624.38 tumor cell line (HLA-A*02 positive, NY-ESO-1/LAGE-1 positive); assay: as above; settings: TCR-transduced CD8+ T cells, effector-to-target about 4:1
Protocol: as §1

[3] = tested on: SK-Me123 tumor cell line (HLA-A*02 positive, NY-ESO-1/LAGE-1 negative); assay: as above; settings: antigen-negative target line; effector-to-target about 4:1; 67 hours
Protocol: as §1

[4] = tested on: FM3.29; assay: IFN-γ ELISA, stimulation by tumor cell lines; settings: transduced CD8+ T cells 40,000, target cells 20,000
Excerpt: (§2) IFN-γ ELISA was used to assess cytokine secretion upon stimulation of T11.8-10-17-transduced T cells (CD8_T11.8-10-17) with a panel of HLA-A*02:01 positive, NY-ESO-1/LAGE-1 positive human tumor cell lines (Me1624.38, FM6, FM3.29, MM415, SAOS2, U266). NY-ESO-1/LAGE-1 expression in the target cells was detected by NanoString nCounter® analysis. As positive control for T11.8-10-17-transduced T cells, T2 cells were loaded with SLL-peptide (10^−5 M). As negative controls for the effector function, T11.8-10-17-transduced T cells were co-cultured with T2 cells loaded with irrelevant (FTV) peptide (10^−5M), SK-Me123 (HLA-A2pos, NY-ESO-1/LAGE-1neg) or SKM1 (HLA-A2pos, NY-ESO-1/LAGE-1neg), or untransduced T cells were co-cultured with tumor cells or peptide-loaded T2 cells. Cultivation of target cells without effector cells served as an additional negative control. Target cells were co-cultured with T cells at a ratio of 2:1 using 40,000 T11.8-10-17-transduced T cells and 20,000 target cells. (FIG. 3).

[5] = tested on: FM6; assay: IFN-γ ELISA, stimulation by tumor cell lines; settings: transduced CD8+ T cells 40,000, target cells 20,000
Excerpt: as §2

[6] = tested on: MM415; assay: IFN-γ ELISA, stimulation by tumor cell lines; settings: transduced CD8+ T cells 40,000, target cells 20,000
Excerpt: as §2

[7] = tested on: Me1624.38; assay: IFN-γ ELISA, stimulation by tumor cell lines; settings: transduced CD8+ T cells 40,000, target cells 20,000
Excerpt: as §2

[8] = tested on: SAOS2; assay: IFN-γ ELISA, stimulation by tumor cell lines; settings: transduced CD8+ T cells 40,000, target cells 20,000
Excerpt: as §2

[9] = tested on: SK-Me123 (HLA-A2pos, NY-ESO-1/LAGE-1neg); assay: IFN-γ ELISA, stimulation by tumor cell lines; settings: antigen-negative line; transduced CD8+ T cells 40,000, target cells 20,000
Excerpt: as §2

[10] = tested on: SKM1 (HLA-A2pos, NY-ESO-1/LAGE-1neg); assay: IFN-γ ELISA, stimulation by tumor cell lines; settings: antigen-negative line; transduced CD8+ T cells 40,000, target cells 20,000
Excerpt: as §2

[11] = tested on: U266; assay: IFN-γ ELISA, stimulation by tumor cell lines; settings: transduced CD8+ T cells 40,000, target cells 20,000
Excerpt: as §2

[12] = tested on: peptide-loaded T2 cells; assay: IFN-γ ELISA, peptide-loaded T2 controls of the tumor cell line panel
Excerpt: as §2

[13] = tested on: peptide-loaded T2 cells; assay: Recognition of mismatched epitopes: IFN-γ ELISA with peptide-loaded T2 cells; settings: ratio 1:1
Protocol: As a negative control, untransduced CD8^+ enriched PBMC (CD8_UT) were used as effector cells or TCR-transgenic T cells were stimulated with irrelevant (irr.; […]) peptide-loaded T2 cells (10^−5 M). Background IFN-γ secretion of target cells was also tested (targets only). As a positive control T cells were activated by SLL peptide (#10*)-loaded T2 cells (10^−5 M). […] IFN-γ secretion was measured by standard ELISA in [pg/mL].

[14] = tested on: HLA-A*02:01-transgenic K562 cells; assay: Recognition of ivtRNA mismatched epitopes: IFN-γ ELISA with HLA-A*02:01-transgenic K562 cells; settings: 16 hours
Protocol: For this experiment, 3×10^6 K562 cells in 300 μl RPMI1640 medium were electroporated with 20 μg either NY-ESO-1 or eGFP-ivtRNA (300 Volt and 300 μF; exponential pulse). As positive control, T cells were stimulated with HLA-A*02:01-transgenic K562 cells loaded with either the SLL-peptide (10^−5M) (K562-A2+SLL) or with 20 μg ivtRNA encoding NY-ESO-1 (K562-A2+NY-ESO-1). As a negative control HLA-A*02:01-transgenic K562 were either loaded with irrelevant peptide (10^−5M; K562-A2+FTV) or with 20 μg ivtRNA encoding eGFP (K562-A2+eGFP).

[15] = tested on: T2 cells loaded with NY-ESO-1/LAGE-1157-165 (SLL) peptide (T2(SLL)); assay: Secretion of MIP-1α and MIP-1β, multiplex assay (Milliplex MAP Kit); settings: T2(SLL) 10^−5 M; ratio 1:1, 10 000 cells each; 18 hours; two donors; compared with the other TCR
Protocol: As negative control, T11.8-10-17- or benchmark-transgenic CD8^+ T cells were stimulated with HLA-A*02:01 positive FTV-loaded T2 cells or untransduced CD8^+ enriched PBMC (CD8_ut) were co-cultured with peptide-loaded T2 cells. Furthermore, T2 cells or T cells were cultured separately.
Target cells and T cells were co-cultured at a ratio of 1:1 using 10 000 target cells and 10 000 T11.8-10-17- or benchmark-TCR-transduced T cells. Secretion of MIP-1α and MIP-1β by either T11.8-10-17- or benchmark-transgenic CD8^+ T cells was determined 18 hours after setting up the co-culture by multiplex assay using the Milliplex MAP Kit and analyzed by the MagPix analyzer.

B1: T11.8-10-17: TCR of T cell clone T11.8-10-17 specific for NY-ESO-1/LAGE-1157-165 on HLA-A*02:01; variable α SEQ ID NO: 10, variable β SEQ ID NO: 11 (protein, listed as Homo sapiens)
alpha: MKSLRVLLVILWLQLSWVWSQQKEVEQNSGPLSVPEGAIASLNCTYSDRGSQSFFWYRQYSGKSPELIMFIYSNGDKEDGRFTAQLNKASQYVSLLIRDSQPSDSATYLCAADDKIIFGKGTRLHILPN
beta: MGSWTLCCVSLCILVAKHTDAGVIQSPRHEVTEMGQEVTLRCKPISGHDYLFWYRQTMMRGLELLIYFNNNVPIDDSGMPEDRFSAKMPNASFSTLKIQPSEPRDSAVYFCASSRGGSGYTFGSGTRLTVVE
start of increase of red fluorescence (killing) [1]: 10 h
killing of target cells (increase of red fluorescence, Annexin V) ([1]; 67 hours): showed killing
start of increase of red fluorescence (killing) [2]: 10 h
killing of target cells (increase of red fluorescence, Annexin V) ([2]; 67 hours): showed killing
killing of target cells (increase of red fluorescence, Annexin V) [3]: no increase of red fluorescence was observed
IFN-γ secretion [4]: high amounts of IFN-γ secretion
IFN-γ secretion [5]: high amounts of IFN-γ secretion
IFN-γ secretion [6]: high amounts of IFN-γ secretion
IFN-γ secretion [7]: high amounts of IFN-γ secretion
IFN-γ secretion [8]: high amounts of IFN-γ secretion
recognition (IFN-γ secretion) [9]: no recognition
recognition (IFN-γ secretion) [10]: no recognition
IFN-γ secretion [11]: high amounts of IFN-γ secretion
IFN-γ secretion ([12]; T2 cells loaded with SLL-peptide (10^−5 M)): high amounts of IFN-γ secretion
recognition (IFN-γ secretion) ([12]; T2 cells loaded with irrelevant (FTV) peptide (10^−5 M)): no recognition
peptide recognition (IFN-γ secretion) ([13]; T2 + irrelevant peptide (FTVSGNILTI) 10^−5 M): not the irrelevant peptide
cross-recognition (IFN-γ secretion) ([13]; T2 + peptide #3 10^−5 M): cross-recognized
cross-recognition (IFN-γ secretion) ([13]; T2 + peptide #6 10^−5 M): slightly activated
cross-recognition (IFN-γ secretion) ([13]; T2 + peptide #11 10^−5 M): slightly activated
cross-recognition (IFN-γ secretion) ([13]; T2 + peptide #32 10^−5 M): slightly activated
cross-recognition (IFN-γ secretion) ([13]; T2 + peptide #34 10^−5 M): slightly activated
cross-recognition (IFN-γ secretion) ([13]; T2 + peptide #51 10^−5 M): slightly activated
peptide recognition (IFN-γ secretion) ([13]; T2 + positive control peptide SLL (SLLMWITQC) 10^−5 M): recognized
cross-recognition of internally processed peptide (IFN-γ release) ([14]; K562-A2+#3, ivtRNA long peptide): no cross-recognition
cross-recognition of internally processed peptide (IFN-γ release) ([14]; K562-A2+#6, ivtRNA long peptide): no cross-recognition
cross-recognition of internally processed peptide (IFN-γ release) ([14]; K562-A2+#11, ivtRNA long peptide): no cross-recognition
cross-recognition of internally processed peptide (IFN-γ release) ([14]; K562-A2+#32, ivtRNA long peptide): no cross-recognition
cross-recognition of internally processed peptide (IFN-γ release) ([14]; K562-A2+#34, ivtRNA long peptide): no cross-recognition
cross-recognition of internally processed peptide (IFN-γ release) ([14]; K562-A2+#51, ivtRNA long peptide): no cross-recognition
recognition (IFN-γ release) ([14]; K562-A2+NYESO, NY-ESO-1-ivtRNA transfected): recognized
recognition (IFN-γ release) ([14]; K562-A2+SLL, peptide-loaded 10^−5 M, target:T cell 2:1): recognized
recognition (IFN-γ release) ([14]; K562-A2+eGFP ivtRNA): did not recognize
recognition (IFN-γ release) ([14]; K562-A2+irr., irrelevant peptide 10^−5 M): did not recognize
MIP-1α secretion [15]: markedly lower amounts
MIP-1β secretion [15]: markedly lower amounts

Reference: patent publication US12103957B2, “NYESO TCR” (MEDIGENE IMMUNOTHERAPIES GMBH, priority 2018, dated 2024)
